This is an account of results in publication doi:10.1101/2022.04.09.487726 (bioRxiv, 2022).

The series concerns the molecule itself. The series is described as follows: cryo-EM structure.

B1: Redβ177-His6 (C-terminally truncated Redβ annealase of bacteriophage λ, residues 1-177) (domain or fragment, bacteriophage lambda (phage λ), UniProt P03698 1-177, looked up)
chain: MSTALATLAGKLAERVGMDSVDPQELITTLRQTAFKGDASDAQFIALLIVANQYGLNPWTKEIYAFPDKQNGIVPVVGVDGWSRIINENQQFDGMDFEQDNESCTCRIYRKDRNHPICVTEWMDECRREPFKTREGREITGPWQSHPKRMLRHKAMIQCARLAFGFAGIYDKDEAER
With B1, the binding result is “binds”.
